Data as given in patent US20050153287A1, “Nr3b nmda receptor subunit compositions and related methods” (priority 2001, published 2005).

Legend:
Type in all cases: cell-based
[1] = system: NMDA receptor (NR1 and NR2A); assay: Glutamate-induced whole-cell current in transfected HEK293 cells
Procedure: (§1) To express the receptors in HEK293 cells, the cells were transfected with 1 μg of each plasmid unless otherwise stated (Shi et al., 1999). The NR1 and NR2A were tagged with green fluorescent protein (GFP) on the extracellular domain to facilitate the identification of transfected cells. […] NMDA receptor mediated current was recorded in the presence of 10 μM glycine. AMPA receptor current was recorded as described (Shi et al., 1999). Pipette solutions contained (in mM) Cs-methanesulfonate 110; CsCl 30; NaCl 4; HEPES 10; EGTA 5; CaCl2 0.5 adjusted to pH 7.3 with CsOH. 1 mM glutamate (for NMDA receptor) or kainate (for AMPA receptor) was pressure (1.0 PSI) applied through a puffer pipette positioned ˜10 μm to the cells. A program based on Igor (WaveMetrics, Inc., Lake Oswego, Oreg.) was used to acquire data on a Macintosh computer.

[2] = system: AMPA receptor (GluR2-(R586Q)); assay: Kainate-induced AMPA receptor current in transfected HEK293 cells; conditions: coexpression of NR3B with GluR2-(R586Q) in HEK293 cells
Procedure: as §1

[3] = system: NR1 and NR2A tagged with GFP; assay: Expression levels of GFP-tagged NR1 and NR2A by fluorescence intensity; conditions: presence or absence of NR3B; NR1 and NR2A individually expressed with NR3B
Procedure: as §1
The electrophysiological properties of NR3B were tested by expressing NR3B in HEK293 cells. A conventional NMDA receptor channel is formed by a heteromeric combination of NR1, which is a key subunit for functionality, and at least one NR2 subunit, which is modulatory (Dingledine et al., 1999). […] NR1 and NR2A tagged with GFP were individually expressed with NR3B and their expression levels were measured by the fluorescence intensity. The statistical significance in this figure was assessed by Kolmogorov-Smirnov test. […]

B1: NR3B: mouse NR3B NMDA receptor subunit polypeptide (SEQ ID NO: 2), expressed from cDNA plasmid in HEK293 cells (protein, listed as Mus musculus)
chain: MECVQTLWLSLALALARGSWVVRGHPQPCGVPTRAGASVRLAALLPRAPAARARVLAALATPSPRLPHNLSLELVAVASPTRDPASLARGLCQVLAPPGVVASITFPEARPELRLLQFLAAATETPVLSVLRREVRAPLGAPTPFHLQLDWASPLETILDVLVSLVRAHAWEDIALVLCRVRDPSGLVTLWTSRASQAPKFVLDLSQLDSGNDSLRATLALLGTLEGGGTPVSAAVLLGCSTAHAHEVLEAAPPGPQWLLGTPLPAEALPKTGLPPGVLVLGETGQPSLEAAVHDMVELVARALSSMALMHPERALLPAAVNCEDLKTGGSESTARTLARFLSNTSFQGRTGAVWVAGSSQVHVSRHFKVWSLRRDPLGAPAWATVGSWQDGQLDFQPGAAALRVPSPSGTQARPKLRVVTLVEHPFVFTRESDEDGQCPAGQLCLDPGTNDSARLDALFTALENGSVPRTLRRCCYGYCIDLLERLAEDLAFDFELYIVGDGKYGALRDGRWTGLVGDLLAGRAHMAVTSFSINSARSQVVDFTSPFFSTSLGIMVRTRDTASPIGAFMWPLHWSMWVGVFAALHLTALFLTLYEWRSPYGLTPRGRNRGTVFSYSSALNLCYAILFGRTVSSKTPKCPTGRFLMNLWAIFCLLVLSSYTANLAAVMVGDKTFEELSGIHDPKLHHPSQGFRFGTVWESSAEAYIKASFPEMHAHMRRHSAPTTPHGVAMLTSDPPKLNAFIMDKSLLDYEVSIDADCKLLTVGKPFAIEGYGIGLPQNSPLTSNLSEFISRYKSSGFIDLLHDKWYKMVPCGKRVFAVTETLQMGVYHLSGLFVLLCLGLGSALLTSLGEHVFYRLVLPRIRRGNKLQYWLHTSQKIHRALNTGPPEGQQERAEQECSGPKEEQPAADGAGRWRRVRRAVVERERRVRFLLEPGEAGGDHPWLCSNGPGVQAELRELELRIEAARERLRSALLRRGELRAQLGDGTRLRPLRLLHAAPAES
In the case of B1, the glutamate-induced whole-cell current ([1]; NR3B coexpressed with NR1 and NR2A in HEK293 cells, compared with NR1 and NR2A alone) is reported as “markedly depressed”, the “formation of electrophysiologically functional channels” value ([1]; NR3B coexpressed with NR1 only (n=6)) is reported as “did not result in electrophysiologically functional channels” and the “formation of electrophysiologically functional channels” value ([1]; NR3B coexpressed with NR2A only (n=5)) is reported as “did not result in electrophysiologically functional channels”. For the same molecule, the “current amplitude with increasing amount of NR3B plasmid” value ([1]; NR3B plasmid 0, 1 and 3 μg versus other subunits (each 1 μg), +60 mV, Mg2+-free solution) was “concomitant decrease in current amplitude”, the “sensitivity of the remaining current to Mg2+ block” value ([1]; NR3B with NR1 and NR2A, presence or absence of 1 mM Mg2+) was “not affected” and the “formation of electrophysiologically functional channels” value ([1]; expression of NR3B alone in HEK293 cells (n=6)) was “did not result in electrophysiologically functional channels”. For the same molecule, the “AMPA receptor mediated current” value [2] was “unchanged” and the “expression levels of NR1 and NR2A (GFP fluorescence)” value [3] was “did not show any significant difference”.
